Reference: patent publication US20220213221 (published 2022)
Where two headings read alike, the source gives them in different places. Each block holds one binder with its values, some of them ahead of it.

Experiments:
RhoB Q63L = target: T1, RhoB Q63L (human, UniProt P62745)
T1 chain: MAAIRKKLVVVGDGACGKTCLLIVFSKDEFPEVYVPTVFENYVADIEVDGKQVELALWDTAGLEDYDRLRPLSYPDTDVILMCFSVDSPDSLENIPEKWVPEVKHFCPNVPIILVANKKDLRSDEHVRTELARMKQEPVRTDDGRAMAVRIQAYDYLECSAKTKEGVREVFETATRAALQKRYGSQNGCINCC

RhoA T19N [1] = target: T2, RhoA T19N (human, UniProt P61586)
T2 sequence (P61586 1-190 T19N): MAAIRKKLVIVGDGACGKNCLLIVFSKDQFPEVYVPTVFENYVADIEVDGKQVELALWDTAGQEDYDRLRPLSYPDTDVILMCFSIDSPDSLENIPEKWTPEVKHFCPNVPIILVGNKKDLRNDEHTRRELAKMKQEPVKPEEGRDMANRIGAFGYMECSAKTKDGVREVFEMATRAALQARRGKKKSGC

[2] = target: RhoA wild type GDP-loaded (human, UniProt P61586); experiment: ELISA
RhoA T19N [3] = target: T2, RhoA T19N; experiment: ELISA
RhoA Q63L = RhoA Q63L (human, UniProt P61586)
RhoC Q63L = target: T3, RhoC Q63L (human, UniProt P08134)
T3 chain: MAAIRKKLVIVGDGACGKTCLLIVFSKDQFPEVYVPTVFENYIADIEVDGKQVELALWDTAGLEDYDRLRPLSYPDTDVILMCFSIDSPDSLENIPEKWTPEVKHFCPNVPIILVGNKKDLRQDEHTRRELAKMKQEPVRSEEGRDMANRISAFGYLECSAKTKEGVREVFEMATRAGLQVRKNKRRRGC

binding result [2]: no binding
binding result (RhoA T19N [3]): no binding
Kd (RhoA Q63L): 0.265 nM
Kd (RhoC Q63L): 0.0479 nM
B3: H12 (antibody, V domains shown)
VH: VQLQASGGGFVQPGGSLRLSCAASGDGSRIYAMGWFRQAPGKEREFVSAISWEQDWEHYYADSVKGRFTISRDNSKNTVYLQMNSLRAEDTATYYCAAFMTPHRNLTSMYWGQGTQVTVSS

binding result (RhoA T19N [1]): no binding
B4: 5SNP65 (antibody, V domains shown)
VH: VQLQASGGGFVQPGGSLRLSCAASGATYEGEAMGWFRQAPGKEREFVSAISSYPSVISYYADSVKGRFTISRDNSKNTVYLQMNSLRAEDTATYYCAYWVNHEGTIREIYWGQGTQVTVSS

The remaining lines, values behind:

B1: B6 (antibody, V domains shown)
VH: VQLQASGGGFVQPGGSLRLSCAASGYGSTIETMGWFRQAPGKEREFVSAISRAPGPSQYYADSVKGRFTISRDNSKNTVYLQMNSLRAEDTATYYCAPINNRTMQDSMFLWNYWGQGTQVTVSS
Kd (RhoB Q63L): 0.71 nM

B2: 5SNP48 (antibody, V domains shown)
VH: VQLQASGGGFVQPGGSLRLSCAASGTSWFTEVMGWFRQAPGKEREFVSAISGLHDVGTYYADSVKGRFTISRDNSKNTVYLQMNSLRAEDTATYYCAALDKWYTKAMDARKDYWGQGTQVTVSS
binding result (RhoA T19N [1]): no binding

B5: 4SNP36 (antibody, V domains shown)
VH: VQLQASGGGFVQPGGSLRLSCAASGTSWKDYTMGWFRQAPGKEREFVSAISEGPGAQYYYADSVKGRFTISRDNSKNVYLQMNSLRAEDTATYYCAYSSWQPYVSYWGQGTQVTVSS
Kd (RhoA Q63L): 0.296 nM
Kd (RhoC Q63L): 0.0831 nM
Kd (RhoB Q63L): 0.278 nM
